Positions count from the first letter of the chain named. Names and notes keep the numbering of the source.
B1: LmbC (Streptomyces lincolnensis) (protein)
chain: MSSSVRLSTLLASAAEARPEAPAVLGETRLPVTYGELAARAGGIQAALAGLGVRAGDRVALLSGRTDADAVAAVHAILAAGAVYVPLDAASPPARWASVSRVCAPTAVVGERALLDRFAAAVPGPRRLALPSDGDELPAGRLDPVRSDGTDVAYLLTTSGSTGVPKCVAHTGAGAVAFLEWMVGAFPVGGDDVFACHAPLHFDVSVASVLGSALGGAALAPVPRELSGFPVELATWIAERAVTVWLSVPYPLARLSGLEERAARERLATLRTVVFAGDVFPHQRLAALMRCAPGARFLNIYGPTETNGCTYEVVDAPPAGPVPIGRPVECAECWVEDDDGRPVDAVGSVGELVVAGPTVAAGYWGVEGHGAERFRTGETCPGGRAYATGDQVRVLPGGRYAFLGRMDNMIKMRGQRFELEEVENAVRLAPGVEDCCVVKVDVRDDHSRLLAVVVGPGAGDPRTLREHCLTRLPSWAVPHRFLTAAALPLGSTGKVDRRALREELVTRGE
notes: full-length stand-alone A-domain, C-terminal His8 tag kept, pET42b (plmbC1), E. coli BL21(DE3)
B2: LmbC (Streptomyces lincolnensis; I300L) (protein)
chain: B1 chain with I300L
notes: as for B1
B3: LmbC (Streptomyces lincolnensis; V274C) (protein)
chain: B1 chain with V274C
notes: as for B1
B4: LmbC (Streptomyces lincolnensis; G308V) (protein)
chain: B1 chain with G308V
notes: as for B1
B5: LmbC (Streptomyces lincolnensis; A207F) (protein)
chain: B1 chain with A207F
notes: as for B1
B6: LmbC (Streptomyces lincolnensis; L246Y) (protein)
chain: B1 chain with L246Y
notes: as for B1
B7: CcbC (Streptomyces caelestis; V306G) (protein)
chain: MNTSTVRNSLSTLLADTAAATPGATALREPGGDTTYRDLAALAGGIQTALAEAGVRPGDRVAVLAPQTAAAVAAVHAVLSAGAAYVPLDPASPPARWAAVCGMSTPRAVVGTRDALAKLTAELPHLATVDLEAPWPEAPLAPVEREAADLGAVLPTSGSTGVPKGVAISREALLAFASWMVDTFEVGADDVIAGFSPLHFDVSVFSLFGAALTGAALAPAPPQLAGFPHELASWADDAGITVWYSVPYPLARLGTLDAVVLEQRLGRLRCVCFAGEVFPHRQLATLMSKMPWVRYTNLYGPTETNGCTFEQVLAPPDEAIAIGSPACGAECWVERDGERVDTEGAVGELIVAGPTVADGYWGNEDETARRFRFGREYRSGRAYATGDQVRILPDGRYAYLGRQDHMVKIRGQRLELEEVESVLGTADGVTGCCVVAVTPPGRPALLCAAVVGDQLDHAALRSHCRGRLPSWAIPQRFLEVPAIPLTSTGKTDRQEVRRRVMAELV
B8: CcbC (Streptomyces caelestis; F205A/V306G/Y244L) (protein)
chain: B7 chain with F205A, Y244L
notes: full-length stand-alone A-domain, N-terminal His6 tag kept, pET28b (pccbC), E. coli BL21(DE3)
B9: CcbC (Streptomyces caelestis) (protein)
chain: B7 chain with G306V
B10: CcbC (Streptomyces caelestis; V306G/Y244L) (protein)
chain: B7 chain with Y244L
notes: as for B8

Assays:
Test in all cases: purified protein
Conditions in all cases: amino acid-dependent exchange of 32P from PPi into ATP
purified protein [1] = substrate: CCC[C@H]1CN[C@H](C(=O)O)C1; format: biochemical, Streptomyces lincolnensis
purified protein [2] = substrate: CCCC[C@H]1CN[C@H](C(=O)O)C1; format: biochemical, Streptomyces lincolnensis
purified protein [3] = substrate: CC[C@H]1CN[C@H](C(=O)O)C1; format: biochemical, Streptomyces lincolnensis
purified protein [4] = substrate: CCCCC[C@H]1CN[C@H](C(=O)O)C1; format: biochemical, Streptomyces lincolnensis
purified protein [5] = substrate: O=C(O)[C@@H]1CCCN1
purified protein [6] = substrate: CCC[C@H]1CN[C@H](C(=O)O)C1; format: biochemical, Streptomyces caelestis
purified protein [7] = substrate: CCCCC[C@H]1CN[C@H](C(=O)O)C1; format: biochemical, Streptomyces caelestis

Row | Protein | Km (purified protein [1]) [mM] | kcat (purified protein [1]) [s⁻¹] | kcat/Km (purified protein [1]) [M⁻¹ s⁻¹] | Km (purified protein [5]) [mM] | further results
1 | B1 | 0.28 ± 0.03 | 0.55 ± 0.0167 | 2000 |  | Km (purified protein [2]): 0.12 ± 0.006 mM; Km (purified protein [3]): 6.4 ± 0.3 mM; Km (purified protein [4]): 0.06 ± 0.003 mM; kcat (purified protein [4]): 0.917 ± 0.0133 s⁻¹; kcat/Km (purified protein [4]): 15300 M⁻¹ s⁻¹
2 | B2 | 0.24 ± 0.009 | 0.75 ± 0.00833 | 3080 |  | 
3 | B3 | 0.39 ± 0.04 | 0.65 ± 0.0167 | 1670 |  | 
4 | B4 | 5.8 ± 0.6 | 0.0065 ± 0.000333 | 1.17 |  | 
5 | B5 | 8.6 ± 1 | 0.0733 ± 0.005 | 8.5 |  | 
6 | B6 | 33 ± 6 | 0.00617 ± 0.0005 | 0.183 | 54 ± 2 | kcat (purified protein [5]): 0.217 s⁻¹; kcat/Km (purified protein [5]): 4 M⁻¹ s⁻¹
7 | B7 |  |  |  | 37 ± 2 | 
8 | B8 |  |  |  |  | Km (purified protein [6]): 6.4 ± 1 mM; kcat (purified protein [6]): 0.000333 ± 1.67e-05 s⁻¹; kcat/Km (purified protein [6]): 0.05 M⁻¹ s⁻¹; Km (purified protein [7]): 2.5 ± 1 mM; kcat (purified protein [7]): 0.000417 ± 5e-05 s⁻¹; kcat/Km (purified protein [7]): 0.167 M⁻¹ s⁻¹
9 | B9 |  |  |  | 0.36 ± 0.03 | kcat (purified protein [5]): 0.917 s⁻¹; kcat/Km (purified protein [5]): 2550 M⁻¹ s⁻¹
10 | B10 |  |  |  |  | Km (purified protein [6]): 24 ± 3 mM; kcat (purified protein [6]): 0.001 ± 5e-05 s⁻¹; kcat/Km (purified protein [6]): 0.0433 M⁻¹ s⁻¹
